Source: patent US20250346895A1, “GENETIC SEQUENCE-CARBOHYDRATE CONJUGATES FOR ENHANCED LIVER- AND KIDNEY-SPECIFIC TARGETING” (University of Connecticut, priority 2022, published 2025)

How the values were obtained:
[1] = Kidney-targeted delivery of full-length (22mer) anti-miR-21 PNA: biodistribution (IVIS, flow cytometry); type: in vivo, C57BL/6J mice
Procedure: FIG. 9 illustrates that LBAAc ligand efficiently delivered a 22mer long PNA sequence to the kidney. […] PNA 6 contains succinic acid (SA) at 5′ end for conjugation with LBA-lysine conjugate. Lysine (K) was added on the 3′ end of the PNA followed by fluorescent probe 5-carboxytetramethylrhodamine (TAM) of each PNA. 000 represents the trioxo-miniPEG linker. […] Radiant Efficiency for TAMRA fluorescence in the kidneys of C57BL6/J mice. Results are represented as mean of n=2 with standard error mean as the error bars.
Full-length (22mer) PNA oligomers were designed and synthesized namely PNA 5, PNA 6 and LBAAc conjugate (PNA 6-LBAAc) to target miR-21 (FIG. 9A). PNA 6 was conjugated with LBAAc as described in FIG. 2A.
Biodistribution evaluation of PNA 5 and PNA 6-LBAAc in C57BL/6J mice at a low subcutaneous dose of 1.5 mg/kg (1/10 molar equiv of short PNA 1&2): A lower dose biodistribution was chosen for a comprehensive validation of LBAAc for kidney targeting. […] (FIG. 9D). Results were confirmed by flow cytometry analysis of kidney cells. The kidney cells obtained after RBC lysis were fixed with 4% PFA and analyzed for TAMRA fluorescence. The histogram plots representing the TAMRA fluorescence from 4 and 24 h samples confirmed the elimination of PNA 5 and accumulation of PNA 6-LBAAc in the kidney cells (FIG. 9C). […] Possibly the Tmax for kidney accumulation of PNA 6-LBAAc is >4 h. Decisively, the higher concentration of PNA 6-LBAAc in the kidney at 24 h compared to 4 h time point against PNA 5 confirmed the kidney targeting and potential of the LBAAc ligand.

HepG2 cells = experiment: In vitro cellular uptake in HepG2 cells; type: cell-based

| Molecule | organ distribution of TAMRA fluorescence signal (IVIS) ([1]; 1.5 mg/kg subcutaneous) | overall pharmacokinetics / biodistribution ([1]; 1.5 mg/kg subcutaneous) | increase in kidney retention compared to unconjugated PNA 5 ([1]; 1.5 mg/kg subcutaneous, 24 h) | kidney concentration at 24 h ([1]; 1.5 mg/kg subcutaneous, 24 h) | TAMRA fluorescence in kidney cells (flow cytometry) ([1]; 4 and 24 h samples) | Tmax ([1]; mouse, in vivo, sc, 1.5 mg/kg subcutaneous, read-out: Tmax for kidney accumulation) | cellular uptake (HepG2 cells) |
| --- | --- | --- | --- | --- | --- | --- | --- |
| CC(=O)OC[C@H]1O[C@@H](O[C@@H]([C@H](OC(C)=O)[C@@H](OC(C)=O)C(=O)NCCCC[C@H](NC(=O)[C@H](OC(C)=O)[C@@H](OC(C)=O)[C@H](O[C@@H]2O[C@H](COC(C)=O)[C@H](OC(C)=O)[C@H](OC(C)=O)[C@H]2OC(C)=O)[C@@H](COC(C)=O)OC(C)=O)C(=O)NCCCCCCNC(=O)CCC(=O)NCCOCCOCCOCC(=O)NCCN(CC(=O)NCCN(CC(=O)NCCN(CC(=O)NCCN(CC(=O)NCCN(CC(=O)NCCN(CC(=O)NCCN(CC(=O)NCCN(CC(=O)NCCN(CC(=O)NCCN(CC(=O)NCCN(CC(=O)NCCN(CC(=O)NCCN(CC(=O)NCCN(CC(=O)NCCN(CC(=O)NCCN(CC(=O)NCCN(CC(=O)NCCN(CC(=O)NCCN(CC(=O)NCCN(CC(=O)NCCN(CC(=O)NCCN(CC(=O)N[C@@H](CCCCNC(=O)COCCOCCOCCNC(=O)c2ccc(-c3c4ccc(=[N+](C)C)cc-4oc4cc(N(C)C)ccc34)c(C(=O)[O-])c2)C(N)=O)C(=O)Cn2cnc3c(N)ncnc32)C(=O)Cn2cc(C)c(=O)[nH]c2=O)C(=O)Cn2ccc(N)nc2=O)C(=O)Cn2cnc3c(=O)[nH]c(N)nc32)C(=O)Cn2cnc3c(N)ncnc32)C(=O)Cn2cnc3c(N)ncnc32)C(=O)Cn2cc(C)c(=O)[nH]c2=O)C(=O)Cn2cnc3c(N)ncnc32)C(=O)Cn2cnc3c(=O)[nH]c(N)nc32)C(=O)Cn2cc(C)c(=O)[nH]c2=O)C(=O)Cn2ccc(N)nc2=O)C(=O)Cn2cc(C)c(=O)[nH]c2=O)C(=O)Cn2cnc3c(=O)[nH]c(N)nc32)C(=O)Cn2cnc3c(N)ncnc32)C(=O)Cn2ccc(N)nc2=O)C(=O)Cn2cc(C)c(=O)[nH]c2=O)C(=O)Cn2cnc3c(N)ncnc32)C(=O)Cn2ccc(N)nc2=O)C(=O)Cn2cnc3c(N)ncnc32)C(=O)Cn2cnc3c(N)ncnc32)C(=O)Cn2ccc(N)nc2=O)C(=O)Cn2cc(C)c(=O)[nH]c2=O)[C@@H](COC(C)=O)OC(C)=O)[C@H](OC(C)=O)[C@@H](OC(C)=O)[C@H]1OC(C)=O [PNA 6-LBAAc] | limited to the kidney only | slower biodistribution | 4 fold | concentration increased in the kidney | accumulation | > 4 h |  |
| tris N-acetylgalactosamine [tGalNAc, reference compound] |  |  |  |  |  |  | ASGPR mediated cellular uptake |
| O=C(O)[C@H](O)[C@@H](O)[C@H](O[C@@H]1O[C@H](CO)[C@H](O)[C@H](O)[C@H]1O)[C@H](O)CO [LBA, lactobionic acid] |  |  |  |  |  |  | ASGPR mediated cellular uptake |
